Common to all, as to assay: SPR; Biacore T200; His-tagged histones immobilised on sensor chip NTA; AGEs at 6.25, 12.5, 25, 50 and 100 µg/ml, single-cycle kinetics; 10 mM HEPES, 150 mM NaCl, 0.05% Tween-20; 25 °C; 30 µl/min
For orientation: In SPR one partner is held on a chip, and binding of the other changes the refractive index at the surface.

For assay [1], the target named is His-tagged human histone H2A (human) (UniProt P04908).
The target of assay [2] is His-tagged human histone H3 (human) (UniProt P68431).
Assay [3] concerns the target His-tagged human histone H2B (human) (UniProt P06899).

As a reminder, the Kd is a measure of binding affinity in units of concentration. Low values mean a tighter complex, high ones a looser complex. For the substance “advanced glycation end products (AGEs): bovine serum albumin modified with dehydroascorbic acid (DHA) (from UniProt P02769 25-607) (ligand)”, the Kd in assay [1] worked out at 85.5 nM; in assay [2], 96.5 nM; in assay [3] it was 67.2 nM.

The record behind these values is article PMC9142594.
